Laboratory results reported in the supplement of paper PMC12042874.
± gives the uncertainty stated by the source.

Assay: amyloid nucleation score (Sup35N fusion, yeast selection) (log enrichment); library NNK3; higher = more nucleation; inactive = no reads after selection
Summary of the method: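 Plasmid inserts were Illumina-sequenced at input and output from psi-negative yeast expressing Sup35N fused to peptides of 20 random codons. The yeast were induced with 100 μM copper sulfate for 24 hours and grown 7 days at 30°C on medium lacking adenine and uracil, and sequences with under 100 input reads were excluded. Nucleation score is the DiMSum log enrichment of output over input reads, centred on the mode score of non-aggregating sequences.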

Substance	amyloid nucleation score
LAYVHMGGIARWLC	inactive
NGILKPETVRQI	inactive
AGRNMSLCNLHLILLCTSKC	inactive
LRLMAGNGSSKVGPIKMPWY	inactive
YKIRFSLYVEHSVVLYVQY	inactive
CMAFLHPLF	inactive
HWLRCHEVEKVLVL	inactive
IFINRKE	-0.431 ± 0.76
GWKANWELCRVYVQWSGLNV	0.422 ± 0.38
NAVLEFTPMFMFRTLSGRRV	inactive
VLVCYC	inactive
WVNTGNQRLYRQTCCGTLVR	inactive
VATYVPCPCYSMFCAGIC	-0.355 ± 0.7
LATRWRCCSCNAWS	-0.593 ± 1.1
VNYSLQVNFVFRWARFKLWL	inactive
YSLFGWVSMFGC	inactive
CFFSRFILYPSLTLYMTMLR	inactive
SRRFFRWLSYTFGDGRGWLL	inactive
YRFTRKDSPSSKVKMISNSW	inactive
RNMLVAPDSCMASRWYGVHL	inactive
IRALRKRDEDGSLLTGTLFC	-0.385 ± 1.1

Substance	amyloid nucleation score
LSWIASSGKGWSTTMCISTM	inactive
IGVTPDHRSMLGRNLCLC	inactive
DSRMF	inactive
TGMNNFMKCLGYMSAHVRLI	inactive
ALLFLIERALCPSCK	inactive
DRAGHGSV	inactive
CVVYIGCNATGFKC	1.87 ± 0.059
LRTWLL	inactive
PFKFFW	inactive
TKCLLFFNRGCR	1.1 ± 0.14
IVTNDVCVFSVQYSRFVVRL	0.416 ± 0.23
VVMFSTPDIVDILSHVYRLG	inactive
RWSVLAVSCM	inactive
WVKPSSFWGFERNTYDIYIG	-0.176 ± 0.62
GLCWRMLTFLWSFVSMENNG	-0.565 ± 1.1
KLDLQSSFLFLGSVHV	inactive
FQKGLRQDYQVFLFDSNRFW	inactive
FNVSTGCRWSWAPDHSPCQE	-0.058 ± 0.66
SVGGEWRS	1.34 ± 0.14
GIHHFF	inactive
IWTLVVCFLDVRRRR	-0.05 ± 0.53

Substance	amyloid nucleation score
CRVPSLVIC	inactive
GGLCLLAVLWKFLMSALVIR	inactive
VESVRVLVINPNSDNQVLYL	inactive
SVIASRSLIYD	inactive
WLPPRVMLFTPLRQWLYR	inactive
FMDFRSYITGHNWIHAAWPA	inactive
VNYHFYKFYGPWRVWNRTRA	1.95 ± 0.086
DFYGYSY	inactive
PIFWR	inactive
VCSMWSSSSMIKLRALDDYM	inactive
LSGRVERVW	inactive
ANSNAFIQSDHIRYLLDFAM	0.725 ± 0.18
RPLTVKKY	-0.538 ± 1.4
VYPWFA	inactive
VLLVF	inactive
EVKGTCWVCVLVHVATSYVG	0.65 ± 0.21
FFCMWDRMIALWSHFCNLDG	inactive
LAAICYEVFGCGTWMGC	inactive
MEFHYWTGVCQVSK	inactive
MSCLG	inactive
MSFRIAKDIMCLVGFSLRCT	inactive

Substance	amyloid nucleation score
TPLGLEWYSSREWGISNLWT	inactive
WSSTRLPSMSPCGFIHQGYI	inactive
RIRKRQCWSFVLLLYCGCVT	inactive
GCLECL	inactive
NRGNSIRRDNWFRVILRTCH	inactive
NLMEYSAC	0.182 ± 0.28
VRFNSYAFYITIVGGKHTTT	2.38 ± 0.059
FGSYFSLKVFYNYF	2.38 ± 0.055
FIMLQSPTNSSQILMPTQFT	inactive
NLAAEASVLVYEDELGCRHG	inactive
SRAAPRFRSIP	inactive
YTFNVNITPFTMYHSFIYFS	3.08 ± 0.051
TYLHDLYT	inactive
FDRLNRDDVIFPSRDFNVSS	inactive
WKTRHRVEVWASFLLSYQTG	-0.551 ± 0.62
RVRYGGNKMHNSRKLACGQG	0.743 ± 0.18
RSTFYIISCRTVDWESVSTR	inactive
LNYVCCCIQSPPEFNIS	3.36 ± 0.07
CSLIQSVRSTA	inactive
